T1: SLP-76 159-533 (Homo sapiens, UniProt Q13094)
T1 chain: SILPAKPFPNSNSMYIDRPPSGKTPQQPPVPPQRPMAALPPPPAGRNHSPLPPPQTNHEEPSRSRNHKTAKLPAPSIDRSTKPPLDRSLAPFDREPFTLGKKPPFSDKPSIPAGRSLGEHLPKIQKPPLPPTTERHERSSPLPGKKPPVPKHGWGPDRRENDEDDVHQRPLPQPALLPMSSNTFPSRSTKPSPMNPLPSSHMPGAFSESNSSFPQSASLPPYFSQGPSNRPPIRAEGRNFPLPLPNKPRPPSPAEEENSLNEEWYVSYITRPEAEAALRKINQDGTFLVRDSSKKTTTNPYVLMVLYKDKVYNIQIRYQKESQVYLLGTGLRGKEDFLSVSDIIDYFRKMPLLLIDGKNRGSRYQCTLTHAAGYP

T2: LAT 125-178 (Homo sapiens, UniProt O43561)
T2 chain: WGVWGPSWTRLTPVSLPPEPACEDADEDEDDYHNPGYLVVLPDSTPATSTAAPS

B1: Gads 1-322 (protein)
chain: MEAVAKFDFTASGEDELSFHTGDVLKILSNQEEWFKAELGSQEGYVPKNFIDIQFPKWFHEGLSRHQAENLLMGKEVGFFIIRASQSSPGDFSISVRHEDDVQHFKVMRDNKGNYFLWTEKFPSLNKLVDYYRTNSISRQKQIFLRDRTREDQGHRGNSLDRRSQGGPHLSGAVGEEIRPSMNRKLSDHPPTLPLQQHQHQPQPPQYAPAPQQLQQPPQQRYLQHHHFHQERRGGSLDINDGHCGTGLGSEMNAALMHRRHTDPVQLQAAGRVRWARALYDFEALEDDELGFHSGEVVEVLDSSNPSWWTGRLHNKLGLFPA
B2: Gads 1-322 (protein)
chain: B1 chain
modifications: pY132, pY171
B3: PLC-γ1 (Phospholipase C-γ1), 1–1219 (enzyme)
chain: MAGAASPCANGCGPGAPSDAEVLHLCRSLEVGTVMTLFYSKKSQRPERKTFQVKLETRQITWSRGADKIEGAIDIREIKEIRPGKTSRDFDRYQEDPAFRPDQSHCFVILYGMEFRLKTLSLQATSEDEVNMWIKGLTWLMEDTLQAPTPLQIERWLRKQFYSVDRNREDRISAKDLKNMLSQVNYRVPNMRFLRERLTDLEQRSGDITYGQFAQLYRSLMYSAQKTMDLPFLEASTLRAGERPELCRVSLPEFQQFLLDYQGELWAVDRLQVQEFMLSFLRDPLREIEEPYFFLDEFVTFLFSKENSVWNSQLDAVCPDTMNNPLSHYWISSSHNTYLTGDQFSSESSLEAYARCLRMGCRCIELDCWDGPDGMPVIYHGHTLTTKIKFSDVLHTIKEHAFVASEYPVILSIEDHCSIAQQRNMAQYFKKVLGDTLLTKPVEISADGLPSPNQLKRKILIKHKKLAEGSAYEEVPTSMMYSENDISNSIKNGILYLEDPVNHEWYPHYFVLTSSKIYYSEETSSDQGNEDEEEPKEVSSSTELHSNEKWFHGKLGAGRDGRHIAERLLTEYCIETGAPDGSFLVRESETFVGDYTLSFWRNGKVQHCRIHSRQDAGTPKFFLTDNLVFDSLYDLITHYQQVPLRCNEFEMRLSEPVPQTNAHESKEWYHASLTRAQAEHMLMRVPRDGAFLVRKRNEPNSYAISFRAEGKIKHCRVQQEGQTVMLGNSEFDSLVDLISYYEKHPLYRKMKLRYPINEEALEKIGTAEPDYGALYEGRNPGFYVEANPMPTFKCAVKALFDYKAQREDELTFIKSAIIQNVEKQEGGWWRGDYGGKKQLWFPSNYVEEMVNPVALEPEREHLDENSPLGDLLRGVLDVPACQIAIRPEGKNNRLFVFSISMASVAHWSLDVAADSQEELQDWVKKIREVAQTADARLTEGKIMERRKKIALELSELVVYCRPVPFDEEKIGTERACYRDMSSFPETKAEKYVNKAKGKKFLQYNRLQLSRIYPKGQRLDSSNYDPLPMWICGSQLVALNFQTPDKPMQMNQALFMTGRHCGYVLQPSTMRDEAFDPFDKSSLRGLEPCAISIEVLGARHLPKNGRGIVCPFVEIEVAGAEYDSTKQKTEFVVDNGLNPVWPAKPFHFQISNPEFAFLRFVVYEEDMFSDQNFLAQATFPVKGLKTGYRAVPLKNNYSEDLELASLLIKIDIFPAKENGD
B4: PLC-γ1 1-1219 (protein)
chain: B3 chain
modifications: pY132, pY171
B5: SLP-76 PRR peptide (aa 185–200), wild type (peptide)
peptide: QPPVPPQRPMAALPPP

Holding throughout (assay): ITC
(In general: ITC needs no label: the signal is the heat of the interaction.)

Assay [1] addresses T1, SLP-76 159-533.
For assay [2], the target named is T2, LAT 125-178.
In assay [3] the target is SLP-76 PRR peptide (aa 185–200), high affinity mutant (UniProt Q13094 185-200).
The target in assay [4] is B3.

The molecule B1 had a Kd in assay [1] of 0.0036 µM. For the molecule B2, binding in assay [2] was put at a Kd of 0.213 µM.

The molecule B3 displayed a Kd in assay [3] of 1 µM. B4: binding in assay [2] was put at a Kd of 0.084 µM. This lies in the double-digit nanomolar range. In assay [4], B5 yielded a Kd of 2.36 µM.

In general, Kd refers to a measure of binding affinity in units of concentration. A low value points to tighter binding.

These data come from doi:10.1101/2025.09.11.675682 (2025).
